Source: patent publication US20210324108A1 (Hoffmann-La Roche, published 2021)

How the values were obtained:
[1] = biological target: T1, recombinant human CD40_ECD (human, UniProt P25942 21-193); test: SPR Biacore T200, huCD40 ECD analyte, apparent KD
T1 construct: also called human CD40 extra cellular domain
Experimental: The capacity of the bispecific constructs to bind human CD40 was assessed by surface plasmon resonance (SPR). […] Bulk refractive index differences were corrected by subtracting the response obtained from a goat anti human F(ab′)2 surface. Blank injections are also subtracted (=double referencing). For calculation of apparent KD and other kinetic parameters the Langmuir 1:1 model was used. The apparent Kd was calculated using the Biacore™ B4000 evaluation software (version 1.1).

recombinant human FAP = biological target: T2, recombinant human FAP (human, UniProt Q12884 26-760); test: SPR, huFAP captured (anti-His), Ab analyte
T2 construct: exact construct not described; also called FAP ECD; not shown: The histidine tag (and any linker to it) implied by capture on an anti-histidine antibody
Experimental: Around 12000 resonance units (RU) of the capturing system (15 μg/ml anti-histidine antibody; Order Code: 28995056; GE Healthcare Bio-Sciences AB, Sweden) were coupled on a CMS chip (GE Healthcare BR-1005-30) at pH 4.5 by using an amine coupling kit supplied by the GE Healthcare. Running buffer for Immobilization was HBS-N pH 7.4 (10 mM HEPES, 150 mM NaCl, pH 7.4, GE Healthcare). For the following kinetic characterization running buffer was PBS-P pH 7.4 (20 mM phosphate buffer, 2.7 mM KCl, 137 mM NaCl, 0.05% surfactant P20). The flow cell was set to 25° C.—and the sample block set to 12° C.—and primed with running buffer twice. […] The dissociation phase was monitored for up to 720 s and triggered by switching from the sample solution to running buffer. The surface was regenerated by washing with 10 mM Glycine pH 1.5 for 60 s at a flow rate of 30 μl/min. Bulk refractive index differences were corrected by subtracting the response obtained from an anti-histidine surface. Blank injections are also subtracted (=double referencing). For calculation of KD and kinetic parameters the Langmuir 1:1 model was used.

Binder | Kd [1] [nM] | koff [1] [s⁻¹] | kon [1] [M⁻¹ s⁻¹] | t 1/2 [1] [min] | Kd (recombinant human FAP) [nM] | koff (recombinant human FAP) [s⁻¹] | kon (recombinant human FAP) [M⁻¹ s⁻¹] | t 1/2 (recombinant human FAP) [min]
FAP (4B9)-CD40 Contorsbody P1AE1799 (bispecific antibody, IgG1, 2+1 contorsbody; IgG1 Fc knob/hole, P329G LALA) chain 1: not shown chain 2: EVQLLESGGGLVQPGGSLRLSCAASGYSFTGYYIHWVRQAPGKGLEWVGRVIPNAGGTSYNQKFKGRFTISVDNSKNTAYLQMNSLRAEDTAVYYCAREGIYWWGQGTTVTVSSASTKGPSVFPLAPSSKSTSGGTAALGCLVKDYFPEPVTVSWNSGALTSGVHTFPAVLQSSGLYSLSSVVTVPSSSLGTQTYICNVNHKPSNTKVDKKVEPKSCGGGGSGGGGSDKTHTCPPCPAPEAAGGPSVFLFPPKPKDTLMISRTPEVTCVVVDVSHEDPEVKFNWYVDGVEVHNAKTKPREEQYNSTYRVVSVLTVLHQDWLNGKEYKCKVSNKALGAPIEKTISKAKGQPREPQVCTLPPSRDELTKNQVSLSCAVKGFYPSDIAVEWESNGQPENNYKTTPPVLDSDGSFFLVSKLTVDKSRWQQGNVFSCSVMHEALHNHYTQKSLSLSPGKGGGGSGGGGSDIQMTQSPSSLSASVGDRVTITCRSSQSLVHSNGNTFLHWYQQKPGKAPKLLIYTVSNRFSGVPSRFSGSGSGTDFTLTISSLQPEDFATYFCSQTTHVPWTFGGGTKVEIKRTVAAPSVFIFPPSDEQLKSGTASVVCLLNNFYPREAKVQWKVDNALQSGNSQESVTEQDSKDSTYSLSSTLTLSKADYEKHKVYACEVTHQGLSSPVTKSFNRGECGGGGSGGGGSGGGSGGGGSEIVLTQSPGTLSLSPGERATLSCRASQSVTSSYLAWYQQKPGQAPRLLINVGSRRATGIPDRFSGSGSGTDFTLTISRLEPEDFAVYYCQQGIMLPPTFGQGTKVEIKSSASTKGPSVFPLAPSSKSTSGGTAALGCLVKDYFPEPVTVSWNSGALTSGVHTFPAVLQSSGLYSLSSVVTVPSSSLGTQTYICNVNHKPSNTKVDKKVEPKSC | 15.7 | 0.0151 | 957000 | 0.767 | 4.58 | 0.000253 | 55300 | 45.7
FAP (4B9)-CD40 Contorsbody P1AE2255 (bispecific antibody, IgG1, 2+1 contorsbody with charged residues in the CD40 Fabs; IgG1 Fc knob/hole, P329G LALA) chain 1: not shown chain 2: EVQLLESGGGLVQPGGSLRLSCAASGYSFTGYYIHWVRQAPGKGLEWVGRVIPNAGGTSYNQKFKGRFTISVDNSKNTAYLQMNSLRAEDTAVYYCAREGIYWWGQGTTVTVSSASTKGPSVFPLAPSSKSTSGGTAALGCLVEDYFPEPVTVSWNSGALTSGVHTFPAVLQSSGLYSLSSVVTVPSSSLGTQTYICNVNHKPSNTKVDEKVEPKSCGGGGSGGGGSDKTHTCPPCPAPEAAGGPSVFLFPPKPKDTLMISRTPEVTCVVVDVSHEDPEVKFNWYVDGVEVHNAKTKPREEQYNSTYRVVSVLTVLHQDWLNGKEYKCKVSNKALGAPIEKTISKAKGQPREPQVCTLPPSRDELTKNQVSLSCAVKGFYPSDIAVEWESNGQPENNYKTTPPVLDSDGSFFLVSKLTVDKSRWQQGNVFSCSVMHEALHNHYTQKSLSLSPGKGGGGSGGGGSDIQMTQSPSSLSASVGDRVTITCRSSQSLVHSNGNTFLHWYQQKPGKAPKLLIYTVSNRFSGVPSRFSGSGSGTDFTLTISSLQPEDFATYFCSQTTHVPWTFGGGTKVEIKRTVAAPSVFIFPPSDRKLKSGTASVVCLLNNFYPREAKVQWKVDNALQSGNSQESVTEQDSKDSTYSLSSTLTLSKADYEKHKVYACEVTHQGLSSPVTKSFNRGECGGGGSGGGGSGGGSGGGGSEIVLTQSPGTLSLSPGERATLSCRASQSVTSSYLAWYQQKPGQAPRLLINVGSRRATGIPDRFSGSGSGTDFTLTISRLEPEDFAVYYCQQGIMLPPTFGQGTKVEIKSSASTKGPSVFPLAPSSKSTSGGTAALGCLVKDYFPEPVTVSWNSGALTSGVHTFPAVLQSSGLYSLSSVVTVPSSSLGTQTYICNVNHKPSNTKVDKKVEPKSC | 17.3 | 0.0159 | 918000 | 0.733 | 4.44 | 0.000235 | 52800 | 49.2
FAP (4B9)-CD40 Contorsbody P1AE1902 (bispecific antibody, IgG1, 2+1 contorsbody; IgG1 Fc knob/hole, P329G LALA) chain 1: not shown chain 2: EVQLLESGGGLVQPGGSLRLSCAASGYSFTGYYIHWVRQAPGKGLEWVGRVIPNAGGTSYNQKFKGRFTISVDNSKNTAYLQMNSLRAEDTAVYYCAREGIYWWGQGTTVTVSSASTKGPSVFPLAPSSKSTSGGTAALGCLVKDYFPEPVTVSWNSGALTSGVHTFPAVLQSSGLYSLSSVVTVPSSSLGTQTYICNVNHKPSNTKVDKKVEPKSCGGGGSGGGGSDKTHTCPPCPAPEAAGGPSVFLFPPKPKDTLMISRTPEVTCVVVDVSHEDPEVKFNWYVDGVEVHNAKTKPREEQYNSTYRVVSVLTVLHQDWLNGKEYKCKVSNKALGAPIEKTISKAKGQPREPQVCTLPPSRDELTKNQVSLSCAVKGFYPSDIAVEWESNGQPENNYKTTPPVLDSDGSFFLVSKLTVDKSRWQQGNVFSCSVMHEALHNHYTQKSLSLSPGKGGGGSGGGGSDIQMTQSPSSLSASVGDRVTITCRSSQSLVHSNGNTFLHWYQQKPGKAPKLLIYTVSNRFSGVPSRFSGSGSGTDFTLTISSLQPEDFATYFCSQTTHVPWTFGGGTKVEIKRTVAAPSVFIFPPSDEQLKSGTASVVCLLNNFYPREAKVQWKVDNALQSGNSQESVTEQDSKDSTYSLSSTLTLSKADYEKHKVYACEVTHQGLSSPVTKSFNRGECGGGGSGGGGSGGGSGGGGSEVQLLESGGGLVQPGGSLRLSCAASGFTFSSYAMSWVRQAPGKGLEWVSAIIGSGASTYYADSVKGRFTISRDNSKNTLYLQMNSLRAEDTAVYYCAKGWFGGFNYWGQGTLVTVSSASVAAPSVFIFPPSDEQLKSGTASVVCLLNNFYPREAKVQWKVDNALQSGNSQESVTEQDSKDSTYSLSSTLTLSKADYEKHKVYACEVTHQGLSSPVTKSFNRGEC | 18.7 | 0.0145 | 776000 | 0.8 | 5.33 | 0.000288 | 54100 | 40.1

Stronger by Kd [1], values ahead:

Kd [1] [nM] | koff [1] [s⁻¹] | kon [1] [M⁻¹ s⁻¹] | t 1/2 [1] [min] | Kd (recombinant human FAP) [nM] | koff (recombinant human FAP) [s⁻¹] | kon (recombinant human FAP) [M⁻¹ s⁻¹] | t 1/2 (recombinant human FAP) [min] | Binder
9.43 | 0.0127 | 1.35e+06 | 0.917 | 9.07 | 0.000778 | 85700 | 14.8 | FAP (4B9)-CD40 Contorsbody P1AE1800 (bispecific antibody, IgG1, 2+1 contorsbody; IgG1 Fc knob/hole, P329G LALA) chain 1: not shown chain 2: DIQMTQSPSSLSASVGDRVTITCRSSQSLVHSNGNTFLHWYQQKPGKAPKLLIYTVSNRFSGVPSRFSGSGSGTDFTLTISSLQPEDFATYFCSQTTHVPWTFGGGTKVEIKRTVAAPSVFIFPPSDEQLKSGTASVVCLLNNFYPREAKVQWKVDNALQSGNSQESVTEQDSKDSTYSLSSTLTLSKADYEKHKVYACEVTHQGLSSPVTKSFNRGECGGGGSGGGGSDKTHTCPPCPAPEAAGGPSVFLFPPKPKDTLMISRTPEVTCVVVDVSHEDPEVKFNWYVDGVEVHNAKTKPREEQYNSTYRVVSVLTVLHQDWLNGKEYKCKVSNKALGAPIEKTISKAKGQPREPQVCTLPPSRDELTKNQVSLSCAVKGFYPSDIAVEWESNGQPENNYKTTPPVLDSDGSFFLVSKLTVDKSRWQQGNVFSCSVMHEALHNHYTQKSLSLSPGKGGGGSGGGGSEVQLLESGGGLVQPGGSLRLSCAASGYSFTGYYIHWVRQAPGKGLEWVGRVIPNAGGTSYNQKFKGRFTISVDNSKNTAYLQMNSLRAEDTAVYYCAREGIYWWGQGTTVTVSSASTKGPSVFPLAPSSKSTSGGTAALGCLVKDYFPEPVTVSWNSGALTSGVHTFPAVLQSSGLYSLSSVVTVPSSSLGTQTYICNVNHKPSNTKVDKKVEPKSCGGGGSGGGGSGGGSGGGGSEIVLTQSPGTLSLSPGERATLSCRASQSVTSSYLAWYQQKPGQAPRLLINVGSRRATGIPDRFSGSGSGTDFTLTISRLEPEDFAVYYCQQGIMLPPTFGQGTKVEIKSSASTKGPSVFPLAPSSKSTSGGTAALGCLVKDYFPEPVTVSWNSGALTSGVHTFPAVLQSSGLYSLSSVVTVPSSSLGTQTYICNVNHKPSNTKVDKKVEPKSC
6.98 | 0.00692 | 991000 | 1.67 | 7.05 | 0.000269 | 38200 | 43 | FAP (4B9)-CD40 Contorsbody P1AE1901 (bispecific antibody, IgG1, 2+1 contorsbody; IgG1 Fc knob/hole, P329G LALA) chain 1: not shown chain 2: DIQMTQSPSSLSASVGDRVTITCRSSQSLVHSNGNTFLHWYQQKPGKAPKLLIYTVSNRFSGVPSRFSGSGSGTDFTLTISSLQPEDFATYFCSQTTHVPWTFGGGTKVEIKRTVAAPSVFIFPPSDEQLKSGTASVVCLLNNFYPREAKVQWKVDNALQSGNSQESVTEQDSKDSTYSLSSTLTLSKADYEKHKVYACEVTHQGLSSPVTKSFNRGECGGGGSGGGGSDKTHTCPPCPAPEAAGGPSVFLFPPKPKDTLMISRTPEVTCVVVDVSHEDPEVKFNWYVDGVEVHNAKTKPREEQYNSTYRVVSVLTVLHQDWLNGKEYKCKVSNKALGAPIEKTISKAKGQPREPQVCTLPPSRDELTKNQVSLSCAVKGFYPSDIAVEWESNGQPENNYKTTPPVLDSDGSFFLVSKLTVDKSRWQQGNVFSCSVMHEALHNHYTQKSLSLSPGKGGGGSGGGGSEVQLLESGGGLVQPGGSLRLSCAASGYSFTGYYIHWVRQAPGKGLEWVGRVIPNAGGTSYNQKFKGRFTISVDNSKNTAYLQMNSLRAEDTAVYYCAREGIYWWGQGTTVTVSSASTKGPSVFPLAPSSKSTSGGTAALGCLVKDYFPEPVTVSWNSGALTSGVHTFPAVLQSSGLYSLSSVVTVPSSSLGTQTYICNVNHKPSNTKVDKKVEPKSCGGGGSGGGGSGGGSGGGGSEVQLLESGGGLVQPGGSLRLSCAASGFTFSSYAMSWVRQAPGKGLEWVSAIIGSGASTYYADSVKGRFTISRDNSKNTLYLQMNSLRAEDTAVYYCAKGWFGGFNYWGQGTLVTVSSASVAAPSVFIFPPSDEQLKSGTASVVCLLNNFYPREAKVQWKVDNALQSGNSQESVTEQDSKDSTYSLSSTLTLSKADYEKHKVYACEVTHQGLSSPVTKSFNRGEC
